# Patent publication CN113234156A
# T1: Mb重组蛋白 (recombinant myoglobin) (UniProt P02144)
# T1 sequence (looked up): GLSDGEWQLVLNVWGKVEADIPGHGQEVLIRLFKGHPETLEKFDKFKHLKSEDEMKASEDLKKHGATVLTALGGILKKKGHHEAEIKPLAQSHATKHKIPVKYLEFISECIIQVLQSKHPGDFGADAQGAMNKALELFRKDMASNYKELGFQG
# B1: 鼠单克隆抗体 9B2 (antibody, part only; not given: light chain variable domain, V domains shown, part only)
# VH: QVQLQQSGAALVRPGTSVKVSCKASGYAFTNYLIEWVKQRPGQGLEWIGVINPGSGGTDYNEKFKGKATLTADKSSSTAYMQLSSLTSDDSAVYFCARSSLYGSSRMDYWGQETSVTVSS
# B2: 鼠单克隆抗体 1E6 (antibody, V domains shown)
# VH: EVQLQQSGAELVKPGASVKLSCTTSGFNIKDTYIHWVRQRPEQGLEWIGNIDPANGNTKYDPEFQGKATITADTSSNTAYLHLSSLTSEDTAVYYCARVDGSRDFDYWGQGTTLTVSS
# VL: DIVMTQAAPSVTVTPGESVSISCRSSKSLLYSNGNTYLYWFLQRPGQSPQLLIYRMSNLASGVPDRFSGSGSGTAFTLRISRVEAEDVGVYYCMQHLEYPLTFGGGTKLELK
# Legend:
# [1] = biological target: T1, Mb重组蛋白 (recombinant myoglobin); assay: indirect ELISA; Mb coated 2 ug/mL; hybridoma supernatant 1/50
# [2] = biological target: T1, Mb重组蛋白 (recombinant myoglobin); assay: indirect ELISA; Mb coated 2 ug/mL; hybridoma supernatant 1/400
# [3] = biological target: T1, Mb重组蛋白 (recombinant myoglobin); assay: indirect ELISA; Mb coated 2 ug/mL; hybridoma supernatant 1/50; remark: listed apart in the source
# [4] = biological target: T1, Mb重组蛋白 (recombinant myoglobin); assay: indirect ELISA; Mb coated 2 ug/mL; hybridoma supernatant 1/100
# [5] = biological target: T1, Mb重组蛋白 (recombinant myoglobin); assay: indirect ELISA; Mb coated 2 ug/mL; hybridoma supernatant 1/200
Binder,OD450 [1] [OD],OD450 [2] [OD],OD450 [3] [OD],OD450 [4] [OD],OD450 [5] [OD]
B1,1.69,1.27,1.7,1.63,1.46
B2,1.69,0.857,1.73,1.33,1.18
